Results taken from patent publication US11795460B2, “Compositions and methods for TTR gene editing and treating ATTR amyloidosis” (Intellia Therapeutics, Inc., priority 2017, dated 2023).
Strand notation (5' to 3'): a small letter for the sugar, then the base; units joined by * are phosphorothioate-linked, units joined directly phosphodiester-linked; [ ] holds rarer units or linkages, { } end groups; capitals alone tell only the bases. m = 2'-O-methyl; r = 2'-OH (RNA)

B1: G000499: TTR sgRNA modified sequence, Human, SEQ ID No. 106; guide sequence of CR005303 (nucleic acid)
guide: mU*mG*mA*rArUrCrCrArArGrUrGrUrCrCrUrCrUrGrArGrUrUrUrUrArGrAmGmCmUmAmGmAmAmAmUmAmGmCrArArGrUrUrArArArArUrArArGrGrCrUrArGrUrCrCrGrUrUrArUrCrAmAmCmUmUmGmAmAmAmAmAmGmUmGmGmCmAmCmCmGmAmGmUmCmGmGmUmGmCmU*mU*mU*mU
B2: G000488: TTR sgRNA modified sequence, Human, SEQ ID No. 95; guide sequence of CR003346 (nucleic acid)
guide: mA*mA*mA*rGrUrUrCrUrArGrArUrGrCrUrGrUrCrCrGrGrUrUrUrUrArGrAmGmCmUmAmGmAmAmAmUmAmGmCrArArGrUrUrArArArArUrArArGrGrCrUrArGrUrCrCrGrUrUrArUrCrAmAmCmUmUmGmAmAmAmAmAmGmUmGmGmCmAmCmCmGmAmGmUmCmGmGmUmGmCmU*mU*mU*mU
B3: G000486: TTR sgRNA modified sequence, Human, SEQ ID No. 93; guide sequence of CR003339 (nucleic acid)
guide: mA*mC*mA*rCrArArArUrArCrCrArGrUrCrCrArGrCrArGrUrUrUrUrArGrAmGmCmUmAmGmAmAmAmUmAmGmCrArArGrUrUrArArArArUrArArGrGrCrUrArGrUrCrCrGrUrUrArUrCrAmAmCmUmUmGmAmAmAmAmAmGmUmGmGmCmAmCmCmGmAmGmUmCmGmGmUmGmCmU*mU*mU*mU
B4: G000481: TTR sgRNA modified sequence, Human, SEQ ID No. 88; guide sequence of CR003345 (nucleic acid)
guide: mU*mC*mU*rArGrArArCrUrUrUrGrArCrCrArUrCrArGrGrUrUrUrUrArGrAmGmCmUmAmGmAmAmAmUmAmGmCrArArGrUrUrArArArArUrArArGrGrCrUrArGrUrCrCrGrUrUrArUrCrAmAmCmUmUmGmAmAmAmAmAmGmUmGmGmCmAmCmCmGmAmGmUmCmGmGmUmGmCmU*mU*mU*mU
B5: G000480: TTR sgRNA modified sequence, Human, SEQ ID No. 87; guide sequence of CR003353 (nucleic acid)
guide: mA*mA*mA*rGrGrCrUrGrCrUrGrArUrGrArCrArCrCrUrGrUrUrUrUrArGrAmGmCmUmAmGmAmAmAmUmAmGmCrArArGrUrUrArArArArUrArArGrGrCrUrArGrUrCrCrGrUrUrArUrCrAmAmCmUmUmGmAmAmAmAmAmGmUmGmGmCmAmCmCmGmAmGmUmCmGmGmUmGmCmU*mU*mU*mU
B6: G000489: TTR sgRNA modified sequence, Human, SEQ ID No. 96; guide sequence of CR003344 (nucleic acid)
guide: mU*mU*mU*rGrArCrCrArUrCrArGrArGrGrArCrArCrUrGrUrUrUrUrArGrAmGmCmUmAmGmAmAmAmUmAmGmCrArArGrUrUrArArArArUrArArGrGrCrUrArGrUrCrCrGrUrUrArUrCrAmAmCmUmUmGmAmAmAmAmAmGmUmGmGmCmAmCmCmGmAmGmUmCmGmGmUmGmCmU*mU*mU*mU
B7: G000502: TTR Cyno specific sgRNA modified sequence, SEQ ID No. 114; guide sequence of CR000689; cross homologous between mouse and cyno (nucleic acid)
guide: mA*mC*mA*rCrArArArUrArCrCrArGrUrCrCrArGrCrGrGrUrUrUrUrArGrAmGmCmUmAmGmAmAmAmUmAmGmCrArArGrUrUrArArArArUrArArGrGrCrUrArGrUrCrCrGrUrUrArUrCrAmAmCmUmUmGmAmAmAmAmAmGmUmGmGmCmAmCmCmGmAmGmUmCmGmGmUmGmCmU*mU*mU*mU
B8: G000482: TTR sgRNA modified sequence, Human, SEQ ID No. 89; guide sequence of CR003365 (nucleic acid)
guide: mU*mG*mU*rArGrArArGrGrGrArUrArUrArCrArArArGrGrUrUrUrUrArGrAmGmCmUmAmGmAmAmAmUmAmGmCrArArGrUrUrArArArArUrArArGrGrCrUrArGrUrCrCrGrUrUrArUrCrAmAmCmUmUmGmAmAmAmAmAmGmUmGmGmCmAmCmCmGmAmGmUmCmGmGmUmGmCmU*mU*mU*mU

Tested on: human TTR
Test: Serum human TTR ELISA in humanized TTR mice (Table 26)
Format: in vivo, mouse
Details: for Serum TTR(% TSS): Table 26, serum human TTR, LNP Formulation Numbers 6-16, 1 mg/kg (total RNA content)
Protocol: Blood was collected and the serum was isolated as indicated. The total mouse TTR serum levels were determined using a Mouse Prealbumin (Transthyretin) ELISA Kit (Aviva Systems Biology, Cat. OKIA00111); rat TTR serum levels were measured using a rat specific ELISA kit (Aviva Systems Biology catalog number OKIA00159); human TTR serum levels were measured using a human specific ELISA kit (Aviva Systems Biology catalog number OKIA00081); each according to manufacture's protocol. Briefly, sera were serial diluted with kit sample diluent to a final dilution of 10,000-fold, or 5,000-fold when measuring human TTR in mouse sera. 100 ul of the prepared standard curve or diluted serum samples were added to the ELISA plate, incubated for 30 minutes at room temperature then washed 3 times with provided wash buffer. 100 uL of detection antibody was then added to each well and incubated for 20 minutes at room temperature followed by 3 washes. 100 uL of substrate is added then incubated for 10 minutes at room temperature before the addition of 100 uL stop solution. The absorbance of the contents was measured on the Spectramax M5 plate reader with analysis using SoftmaxPro version 7.0 software. Serum TTR levels were quantitated off the standard curve using 4 parameter logistic fit and expressed as ug/mL of serum or percent knockdown relative control (vehicle treated) animals.
The level of human TTR in serum was measured in the mice provided formulation numbers 6-8, 10-13, and 15-16. FIG. 14A is a repeat of FIG. 13 provided for comparison purposes. Knockdown of serum human TTR was detected for each formulation tested, which correlated with the amount of editing detected in liver (See FIG. 14A vs 14B, Table 26).
In another set of experiments, humanized TTR mice were dosed with LNP formulations across a range of doses with guides G000480, G000488, G000489 and G000502. The formulations contained Cas9 mRNA (SEQ ID NO: 1) in a 1:1 ratio by weight to the guide. The LNPs contained Lipid A, Cholesterol, DSPC, and PEG2k-DMG in a 50:38:9:3 molar ratio, respectively, and having a N:P ratio of 6. Dosing was at 1, 0.3, 0.1, or 0.03 mg/kg (n=5/group). The LNPs were prepared using the cross-flow procedure described above and purified and concentrated using PD-10 columns and Amicon centrifugal filter units, respectively. Liver editing results were determined using primers designed to amplify the region of interest for NGS analysis and serum human TTR levels were measured as described above. Results for liver editing are shown in FIG. 26A and serum human TTR levels in FIG. 26B-C.
(§1) In another set of experiments, humanized TTR mice were dosed with LNP formulations across a range of doses with guides G000481, G000482, G000486 and G000499. The formulations contained Cas9 mRNA (SEQ ID NO: 1) in a 1:1 ratio by weight to the guide. […] Dosing was at 1, 0.3, or 0.1 mg/kg (n=5/group). The LNPs were prepared using the cross-flow procedure described above and purified and concentrated using PD-10 columns and Amicon centrifugal filter units, respectively. Liver editing results were determined using primers designed to amplify the region of interest for NGS analysis and serum human TTR levels were measured as described above. Results for liver editing are shown in FIG. 27A and serum human TTR levels in FIG. 27B-C.
as §1, with “guides G000480,” for “guides”, “G000486, G000499” for “G000482, G000486”, “G000502.” for “G000499.”, “1:2” for “1:1”, “Results for liver editing are shown in FIG. 27A and serum human TTR levels in FIG. 27B-C.” left out

[1] = 1, 0.3, or 0.1 mg/kg, Cas9 mRNA (SEQ ID NO: 1) 1:1 by weight to guide, FIG. 27B-C
[2] = 1, 0.3, or 0.1 mg/kg, Cas9 mRNA (SEQ ID NO: 1) 1:2 by weight to guide, FIG. 28B-C
[3] = 1, 0.3, 0.1, or 0.03 mg/kg, Cas9 mRNA (SEQ ID NO: 1) 1:1 by weight to guide, FIG. 26B-C

Row | Molecule | Serum human TTR levels, dose response [1] | Serum human TTR levels, dose response [2] | Serum TTR(% TSS) | Serum human TTR levels, dose response [3]
1 | B1 | A dose response for both editing and serum TTR levels was evident | A dose response for both editing and serum TTR levels was evident | 8.39 | 
2 | B2 |  |  |  | A dose response for both editing and serum TTR levels was evident
3 | B3 | A dose response for both editing and serum TTR levels was evident | A dose response for both editing and serum TTR levels was evident |  | 
4 | B4 | A dose response for both editing and serum TTR levels was evident | A dose response for both editing and serum TTR levels was evident | 10.52 | 
5 | B5 |  | A dose response for both editing and serum TTR levels was evident |  | A dose response for both editing and serum TTR levels was evident
6 | B6 |  |  |  | A dose response for both editing and serum TTR levels was evident
7 | B7 |  | A dose response for both editing and serum TTR levels was evident |  | A dose response for both editing and serum TTR levels was evident
8 | B8 | A dose response for both editing and serum TTR levels was evident |  |  | 
